Experimental data taken from US20250177548A1, “FUSOGENIC PEPTIDE COMPOSITIONS AND METHODS OF CARGO DELIVERY” (CLEMSON UNIVERSITY, priority 2022, published 2025).
Non-standard residues stand in square brackets, D forms with d. Primed or numbered codes have the meaning given here. No end group written: not given here. pG″ = pyro form of the N-terminal glycine (pyroglycine); pG = not defined here

T1: luteinizing hormone releasing hormone (LHRH) receptor (UniProt P30968 1-328, limits assumed)
T1 sequence (looked up): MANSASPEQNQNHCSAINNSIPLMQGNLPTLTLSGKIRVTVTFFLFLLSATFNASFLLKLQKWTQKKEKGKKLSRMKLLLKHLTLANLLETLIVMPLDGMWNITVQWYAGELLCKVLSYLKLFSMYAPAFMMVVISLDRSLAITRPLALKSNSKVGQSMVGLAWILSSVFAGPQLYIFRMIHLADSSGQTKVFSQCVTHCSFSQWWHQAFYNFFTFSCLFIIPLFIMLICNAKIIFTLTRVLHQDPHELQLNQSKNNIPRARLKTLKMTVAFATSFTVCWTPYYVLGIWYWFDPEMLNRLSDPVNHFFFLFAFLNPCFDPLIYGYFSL


How the values were obtained:
[1] = gel assay of siRNA protection from degradation in 50% serum; assay type: in vitro ADME; settings: 50% FBS, 1 hour, several N:P ratios
Protocol: (§1) Gel Shift Assays. DIVA3, DIV3H, and DIV3W (all three denoted as DIV3 (X)) peptides suspended in RNase-free water (10 μM), were thawed, and kept on ice prior to complexation with 10 μM of negative control siGENOME non-targeting siRNA #5 (siNT, GE Healthcare Dharmacon, Lafayette, CO) in RNase-free water and incubated for 20 minutes at room temperature to allow the formation of DIV3 (X)-siNT complexes. Various molar ratios of peptides were complexed with siNT at increasing N:P molar ratios to determine the minimum molar ratio necessary to completely complex free siRNAs using an electrophoretic mobility shift assay. To determine the ability of each peptide variant to protect siRNAs from degradation, DIV3 (X)-siNT complexes or siNT alone was left untreated or incubated with either 50% v/v FBS or 5 μg/mL RNase A at 37° C. for one hour. Next, complexes were dissociated using 6% sodium dodecyl sulfate (SDS). Samples were added to a 2% agarose gel and run at 100 V. Gels were stained with ethidium bromide, destained with Milli-Q water, and imaged using a ChemiDoc XRS imager (Bio-Rad, Hercules, CA).
(§2) Characterization of Nanoparticle Size and Stability. To determine the minimum molar ratio necessary to completely complex free siRNAs, increasing N:P molar ratios of LHRH, DIV3W, and LHRH-DIV3W peptide were complexed with siRNAs and electrophoresed using a electrophoretic mobility shift assay. Molar ratios, shown as N:P, are representations of the molar amine peptide content in relation to 1 mole of phosphate group siRNA content. To determine the ability of the peptides to protect siRNAs from serum- or RNase-mediated degradation, LHRH and LHRH-DIV3W complexes were formed in RNase-free water with siNT at increasing N:P molar ratios and incubated at 37° C., 5% CO2, 50% v/v FBS, 5 μg/mL RNase A, or 50% v/v RNase free water for 1 hour. Peptide/siRNA complexes were dissociated using 6% sodium dodecyl sulfate (SDS) prior to electrophoresis in a 2% agarose gel run at 100 V. Gels were stained with ethidium bromide, washed with Milli-Q water, and imaged with a BioRad ChemiDoc XRS imager (BioRad, Hercules, CA).
(§3) Peptides VA-LD and GF-LD, comprising the cleavable linker VA or GLFG, respectively, between the LHRH target sequence and the DIV3W peptide, and non targeting siRNA were electrostatically complexed at increasing N:P ratios then subjected to agarose gel electrophoresis to determine optimal siRNA binding for each peptide. […] Peptide-siRNA nanocomplexes at increasing N:P ratios for peptides for VA-LD (FIG. 30A) and GF-LD (FIG. 30C) were incubated in either Rnase A enzyme or in 50% fetal bovine serum (FBS) for 1 h, dissociated using SDS then subjected to gel electrophoresis to visualize siRNA bands. Gels showing increasing N:P ratios of peptide:siRNA for VA-LD (FIG. 30B) and GF-LD (FIG. 30D) from 20:1 to 80:1 N:P; white bands are indicative of intact siRNA

RNase A = assay: gel assay of siRNA protection from RNase A degradation; assay type: in vitro ADME; settings: 1 hour, several N:P ratios
Protocol: as §1, §2, §3

OVCAR3 cells [2] = assay: cellular uptake of labeled siRNA by flow cytometry; assay type: cell-based; settings: for uptake efficiency: OVCAR3, siNT-DY547, 4 hours; for uptake efficiency, tandem vs LHRH peptide: FIG. 10E, 4 hr, cell line not stated
Protocol: Cellular Uptake. OVCAR3 and CAOV3 cells were prepared at 50,000 cells per well in a 24-well plate. […] Post-incubation, media was aspirated and cells were washed with 1× PBS. To counterstain the nuclei, SuperSignal NucBlue Hoechst stain (Thermo Fisher, Waltham, MA) was added to the cells for 30 minutes, followed by an additional 1×PBS wash. Subsequent imaging was performed using an EVOS FL Microscope (Thermo Fisher) at 10× magnification. For flow cytometric analysis, cells were detached, resuspended in 1× PBS, and analyzed using an Attune NXT Acoustic flow cytometer (Invitrogen, Carlsbad, CA) with the blue laser line and BL2 (574/26 nm) channel.
Cellular Uptake and Targeting Specificity. Observation of cell uptake was performed by seeding OVCAR3 and CAOV3 cells at a density of 50,000 cells per well in a 24-well plate. LHRH and LHRH-DIV3W peptides were complexed with […] as previously described and delivered to cells at 20:1 to 80:1 N:P ratios. Each cell line was incubated with tandem peptide complexes for both 4- and 24-hour treatment periods. Following incubation, cell media was removed, and cells were washed with 1× PBS prior to the addition of 500 μL of 1×PBS and SuperSignal NucBlue Hoescht 33342 nuclear stain (Thermo Fisher, Waltham, MA). Cellular imaging was completed using an EVOS FL Microscope (Thermo Fisher) at 10×, 20×, and 40× magnification. Flow cytometry was completed after cell imaging and cells were trypsinized, resuspended in 1×PBS, and analyzed with an Attune NXT Acoustic Flow Cytometer (Invitrogen) with the red laser line and RL2 […] channel.

[3] = dynamic light scattering, size and zeta potential of peptide/siRNA complexes; assay type: physicochemical; settings: for zeta potential: DIV3 (X) peptide/siRNA complexes
Protocol: Dynamic Light Scattering and Transmission Electron Microscopy. DIV3 (X)-siNT complexes were prepared at 2 mg/mL in RNase-free water. Hydrodynamic size and surface charge of the peptide/siRNA complexes were determined using a Nano ZS Zetasizer (Malvern Pananalytical, Malvern, UK). All data were recorded using Malvern's Zetasizer software.
To determine nanoparticle size and zeta potential, peptides resuspended in RNase-free water (10 μM) were thawed and kept on ice prior to complexation with 10 μM of siNT in RNase-free water and incubated for 20 minutes at room temperature to form DIV3W-siNT and LHRH-DIV3W-siNT complexes. Peptide complexes were prepared at 2 mg/mL in RNase-free water. Hydrodynamic size and surface charge analysis was conducted using a Malvern Nano ZS Zetasizer (Malvern Panalytical, Malvern, UK). All data was analyzed using Malvern's Zetasizer software.

CSNK2A1 mRNA = assay: qPCR of CSNK2A1 mRNA in OVCAR3 cells; assay type: cell-based; settings: OVCAR3, 48 hours
Protocol: qRT-PCR. Cells were seeded at 50,000 cells per well and treated with siRNA targeting CSNK2A1 (siCSNK2A1 #s3638, Thermo Fisher Scientific) at increasing N:P ratios and incubated for a total of 48 hours in McCoys 5A/DMEM-10% FBS. Treated cells were washed with 1×PBS at 24 hours and fresh media was added. RNAisolation was completed using a Qiagen Mini-RNeasy Kit (Qiagen, Hilden, Germany) according to the manufacturer's protocol. RNA isolation quality and quantity were measured through the Gen5 protocol using a Take3 plate (BioTek). RNA was reverse-transcribed using the QuantiTect Reverse Transcription kit (Qiagen). Quantitative real-time PCR was completed with a QuantStudio 3 qPCR system (Applied Biosystems) using Applied Biosystems TaqMan FAST Master Mix (Thermo Fisher) and CSNK2A1 (ID #Hs00751002_s1) and 18S (ID #Hs99999901_s1) predesigned TaqMan probes, according to the manufacturer's protocol.
Gene and Protein Knockdown. Bioactivity of siRNAs was determined via qPCR and western blot analysis. OVCAR3 or CAOV3 cells were seeded at 50,000 cells per well as previously described and treated with siRNA targeting CSNK2A1 and siNT at N:P ratios 30:1, 40:1, 50:1, 60:1, and 70:1. LHRH-DIV3W peptide complexed with either siNT or siCSNK2A1 was incubated for a total of 48 hours in RPMI 1640/DMEM-10% FBS, with one media exchange occurring after the 24-hour timepoint. Treated cells were washed with 1×PBS at 24 hours and fresh media was added. RNA isolation was completed using a Qiagen Mini-RNeasy Kit (Qiagen, Hilden, Germany) according to the manufacturer's protocol. RNA isolation quality and quantity was measured through the Gen5 protocol using a Take3 plate (BioTek). RNA was reverse transcribed using the QuantiTect Reverse Transcription kit (Qiagen) according to the manufacturer's protocol. Quantitative real-time PCR was completed with a QuantStudio 3 qPCR system (Applied Biosystems, Waltham, MA) using Applied Biosystems TaqMan FAST Master Mix (Thermo Fisher) and CSNK2A1 (ID #Hs00751002_s1) and 18S (ID #Hs99999901_s1) predesigned TaqMan probes according to the manufacturer's protocol.

OVCAR3 cells [4] = test system: OVCAR3 cells
Protocol: (§4) Cells were seeded at 10,000 cells per well with complete culture media in a 96-well plate and incubated overnight to allow the cells to attach. DIV3 (X) peptides were complexed with siNT at 40:1 to 80:1 N:P molar ratios. DIV3 (X)-siNT complexes were incubated with OVCAR3 or CAOV3 cells at a final concentration of 100 nM siRNA and 10% FBS for 24 hours. Media was then aspirated, cells were washed with 1× phosphate-buffered saline (PBS), and fresh media with 10% FBS was added to each well and incubated another 24 hours.
Viability was measured using an MTS Assay performed with CellTiter 96 AQueous One Solution Cell Proliferation Assay (Promega, Madison, WI). Assay reagent was added according to the manufacturer's protocol, and cells were incubated for 4 hours. Absorbance was read using a BioTek Synergy LX (BioTek, Winooksi, VT) plate reader at 490 nm. An MTS cell viability assay was also conducted as described for OVCAR3 and CAOV3 cells treated with DIV3W-siRNA complexes.
OVCAR3 or CAOV3 cells were seeded at 10,000 cells per well with complete culture media in a transparent 96-well plate and incubated overnight to allow the cells to attach. LHRH and LHRH-DIV3W peptides were delivered to cells without siRNA cargo. After 24 hours of incubation the media was exchanged and after another 24-hour incubation at 37° C. in 5% CO2, viability was measured using an MTS Assay performed with the CellTiter 96 AQueous One Solution Assay (Promega, Madison, WI). Assay reagent was added according to the manufacturer's protocol and cells were incubated for 4 hours. Absorbance was read using a BioTek Synergy LX (BioTek, Winooksi, VT) plate reader at 490 nm.

ES2 ovarian cancer cells [5] = assay: cellular uptake of cy5 siRNA, microscopy and flow cytometry; assay type: cell-based, human; settings: ES2, 4 hours, N:P ratios of 20:1-40:1
Protocol: Peptides, VA-LD and GF-LD, and cy5 labeled non targeting siRNA were electrostatically complexed at increasing N:P ratios and delivered to human ovarian ES2 cells for 4 hours.

ES2 ovarian cancer cells [6] = test system: ES2 ovarian cancer cells
Protocol: VA-LD and GF-LD peptides were electrostatically complexed with and non targeting siRNA at increasing N:P ratios. Complexes were delivered to human ovarian ES2 cells for 48 hours and analyzed via MTS assay.

[7] = target: T1, luteinizing hormone releasing hormone …; assay: cell-based or functional assay

Protocol for CAOV3 cells: as §4
Viability was measured using an MTS Assay performed with CellTiter 96 AQueous One Solution Cell Proliferation Assay (Promega, Madison, WI). Assay reagent was added according to the manufacturer's protocol, and cells were incubated for 4 hours. Absorbance was read using a BioTek Synergy LX (BioTek, Winooksi, VT) plate reader at 490 nm. […]
OVCAR3 or CAOV3 cells were seeded at 10,000 cells per well with complete culture media in a transparent 96-well plate and incubated overnight to allow the cells to attach. […] After 24 hours of incubation the media was exchanged and after another 24-hour incubation at 37° C. in 5% CO2, viability was measured using an MTS Assay performed with the CellTiter 96 AQueous One Solution Assay (Promega, Madison, WI). […] Absorbance was read using a BioTek Synergy LX (BioTek, Winooksi, VT) plate reader at 490 nm.

Molecule	intact siRNA after incubation in 50% serum [1]	intact siRNA after incubation with RNase A (RNase A)	uptake efficiency (OVCAR3 cells [2]; 80:1) [%]	zeta potential [3] [mV]	delivery of cy5 siRNA (ES2 ovarian cancer cells [5])	biocompatibility of peptide/non-targeting siRNA complexes (ES2 ovarian cancer cells [6])	also measured
WEADIVADIVADIVAGGG-(d) RRRRRRRRR (WEADIVADIVADIVAGGG[dR][dR][dR][dR][dR][dR][dR][dR][dR]) [DIVA3]	Reduction of intact siRNA signal	Reduction of intact siRNA signal	63.6	~20			CSNK2A1 mRNA silencing (knockdown) (CSNK2A1 mRNA; 60:1, vs siNT complex): 47%
WEADIVADIVHDIVADIVAGGG-(d) RRRRRRRRR (WEADIVADIVHDIVADIVAGGG[dR][dR][dR][dR][dR][dR][dR][dR][dR]) [DIV3H]	Reduction of intact siRNA signal		52.1	~30			hydrodynamic diameter ([3]; DIV3 (X) peptide/siRNA complex at 60:1 ratio): around 100 nm; CSNK2A1 mRNA silencing (knockdown) (CSNK2A1 mRNA; 80:1, vs siNT complex): 72%
pGHWSY-(d) L-LRP ([pG]HWSY[dL]LRP; reading uncertain) [LHRH, reference compound]							cytotoxicity of peptide alone (CAOV3 cells): biocompatibility; uptake efficiency, tandem vs LHRH peptide (OVCAR3 cells [2]; 40:1): 34.3%±0.56%; uptake efficiency, tandem vs LHRH peptide (OVCAR3 cells [2]; 60:1): 34.83%±2.75%; uptake efficiency, tandem vs LHRH peptide (OVCAR3 cells [2]; 80:1): 33.87%±1.63%; cytotoxicity of peptide alone (OVCAR3 cells [4]): biocompatibility
pGHWSY-LLRPGGGGFLGWEADIVADIVWDIVADIVAGGG-RRRRRRRRR ([pG]HWSY[dL]LRPGGGGFLGWEADIVADIVWDIVADIVAGGG[dR][dR][dR][dR][dR][dR][dR][dR][dR]; reading uncertain) [GF-LD]	protect siRNA in physiologically relevant environments	protect siRNA in physiologically relevant environments			deliver siRNA to ES2 ovarian cancer cells	biocompatible	
pGHWSY-LLRPGGGVAWEADIVADIVWDIVADIVAGGG-RRRRRRRRR ([pG]HWSY[dL]LRPGGGVAWEADIVADIVWDIVADIVAGGG[dR][dR][dR][dR][dR][dR][dR][dR][dR]; reading uncertain) [VA-LD]	protect siRNA in physiologically relevant environments	protect siRNA in physiologically relevant environments			deliver siRNA to ES2 ovarian cancer cells	biocompatible	
[pG″]HWSY[dL]LRPGGGGGWEADIVADIVWDIVADIVAGGG[dR][dR][dR][dR][dR][dR][dR][dR][dR] [LHRH-DIV3W tandem peptide]							cell viability (MTS), OVCAR3 cells, peptide without siRNA at the 20:1 ratio [7]: 110%
